Residue numbers refer to the chain shown, from its start.
B1: unnamed (protein)
chain: MANPYERGPDPTESSIEAVRGPFAVAQTTVSRLQADGFGGGTIYYPTDTSQGTFGAVAISPGFTAGQESIAWLGPRIASQGFVVITIDTITRLDQPDSRGRQLQAALDHLRTNSVVRNRIDPNRMAVMGHSMGGGGALSAAANNTSLEAAIPLQGWHTRKNWSSVRTPTLVVGAQLDTIAPVSSHSEAFYNSLPSDLDKAYMELRGASHMVSNTPDTTTAKYSIAWLKRFVDDDLRYEQFLCPAPDDFAISEYRSTCPF
B2: unnamed (protein)
chain: B1 chain with F63A, M210L
B3: unnamed (protein)
chain: B1 chain with M210E
B4: unnamed (protein)
chain: B1 chain with M210P
B5: unnamed (protein)
chain: B1 chain with M210V
B6: unnamed (protein)
chain: B1 chain with W156A, M210L
B7: unnamed (protein)
chain: B1 chain with L93F, Q95Y, R205C, M210L, S251C
B8: unnamed (protein)
chain: B1 chain with M210D
B9: unnamed (protein)
chain: B1 chain with M210Q
B10: unnamed (protein)
chain: B1 chain with F63Y, M210L
B11: unnamed (protein)
chain: B1 chain with W156H, M210L
B12: unnamed (protein)
chain: B1 chain with M210T
B13: unnamed (protein)
chain: B1 chain with M210R
B14: unnamed (protein)
chain: B1 chain with I179Y, M210L
B15: unnamed (protein)
chain: B1 chain with M210C
B16: unnamed (protein)
chain: B1 chain with M210F
B17: unnamed (protein)
chain: B1 chain with W156F, M210L
B18: unnamed (protein)
chain: B1 chain with M210H

Substrate: gfPET
Assay: Proxy for plastic degradation [Relative activity]
Settings: pH 8

Row | Protein | Proxy for plastic degradation [%]
1 | B1 | 74
2 | B2 | 22
3 | B3 | 6
4 | B4 | 16
5 | B5 | 61
6 | B6 | 5
7 | B7 | 70
8 | B8 | 66
9 | B9 | 94
10 | B10 | 65
11 | B11 | 1
12 | B12 | 48
13 | B13 | 95
14 | B14 | 26
15 | B15 | 8
16 | B16 | 58
17 | B17 | 8
18 | B18 | 54
